Test results reported in patent publication US20090042291A1 (published 2009).
Each block holds one binder with its values, some of them ahead of it.

How the values were obtained:
[1] = biological target: human V158 FcγRIIIa, extracellular region with C-terminal 6xHis-tag and GST-tag (human, UniProt P08637 17-208); assay: AlphaScreen competition
H268D = assay: Biacore
H268E = assay: Biacore
L328F = assay: Biacore
S298D = assay: Biacore
S267E/L328Y = assay: Biacore
A327Q = assay: Biacore
S267E/N325L = assay: Biacore
A327D = assay: Biacore
H268Q = assay: Biacore
P329E = assay: Biacore
A327N = assay: Biacore
H268N = assay: Biacore
A327G = assay: Biacore
FcγRIIb = biological target: T1, FcγRIIb (human, UniProt P31994 46-217); assay: Biacore
T1 chain: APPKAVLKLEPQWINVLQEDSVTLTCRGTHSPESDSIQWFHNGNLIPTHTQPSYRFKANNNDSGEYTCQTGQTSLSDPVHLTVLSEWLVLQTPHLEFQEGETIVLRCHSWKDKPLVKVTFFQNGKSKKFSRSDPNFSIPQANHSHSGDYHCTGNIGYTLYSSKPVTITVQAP

FcγRI = biological target: T2, FcγRI (human, UniProt P12314 16-288); assay: Biacore
T2 chain: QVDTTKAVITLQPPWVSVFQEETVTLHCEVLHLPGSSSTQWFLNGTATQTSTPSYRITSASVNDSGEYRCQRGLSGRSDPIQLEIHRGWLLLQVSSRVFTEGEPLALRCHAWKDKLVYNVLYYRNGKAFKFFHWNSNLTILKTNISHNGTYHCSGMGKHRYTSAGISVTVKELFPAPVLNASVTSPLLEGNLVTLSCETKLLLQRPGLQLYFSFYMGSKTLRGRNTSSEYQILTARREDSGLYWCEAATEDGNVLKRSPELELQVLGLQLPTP

- IC50 [1]: 4.6 nM
B1: alemtuzumab, wild type, expressed in 293T cells (antibody)
chain 1: not shown
chain 2: not shown

- IC50 [1]: 0.4 nM
B2: alemtuzumab S239D (antibody)
chain 1: not shown
chain 2: not shown

- Kd (H268D): 205 nM
- Kd (H268E): 269 nM
- Kd (L328F): 166 nM
- Kd (S298D): 592 nM
- Kd (S267E/L328Y): 7.06 nM
- Kd (A327Q): 1350 nM
- Kd (S267E/N325L): 20.7 nM
- Kd (A327D): 536 nM
- Kd (H268Q): 544 nM
- Kd (P329E): 10000 nM
- Kd (A327N): 1410 nM
- Kd (H268N): 481 nM
- Kd (A327G): 2690 nM
B3: FcγRIIaR (receptor)
chain: QAAAPPKAVLKLEPPWINVLQEDSVTLTCQGARSPESDSIQWFHNGNLIPTHTQPSYRFKANNNDSGEYTCQTGQTSLSDPVHLTVLSEWLVLQTPHLEFQEGETIMLRCHSWKDKPLVKVTFFQNGKSQKFSRLDPTFSIPQANHSHSGDYHCTGNIGYTLFSSKPVTITVQVPSMGSSSPMG

- Kd (FcγRIIb): 1450 nM
- Kd (FcγRI): 0.626 nM
B4: S267G (antibody)
chain 1: not shown
chain 2: DIVMTQSPATLSLSPGERATLSCRSSKSLQNVNGNTYLYWFQQKPGQSPQLLIYRMSNLNSGVPDRFSGSGSGTEFTLTISSLEPEDFAVYYCMQHLEYPITFGAGTKLEIKRTVAAPSVFIFPPSDEQLKSGTASVVCLLNNFYPREAKVQWKVDNALQSGNSQESVTEQDSKDSTYSLSSTLTLSKADYEKHKVYACEVTHQGLSSPVTKSFNRGEC
